Here are results for one molecule from article PMC2909962, “Integrin αvβ5 is a primary receptor for adenovirus in CAR-negative cells” (Virology Journal, 2010).

The target in the assay is Adenovirus Serotype 5, replication incompetent, E1A deleted, expressing GFP (Ad5-GFP), whole virus (human adenovirus serotype 5, UniProt P12538 1-571); P11818 1-581; P04133 1-952, Whole virion. Only the three major capsid proteins named in the paper are given, as wild type: penton base (5 at each of 12 vertices), fiber (trimer at each vertex), hexon (240 trimers; the paper prin). Kind of assay: ELISA; cell-based: MDA-MB-435 cells in 96-well poly-D-lysine plates, incubated with whole Ad5 at varying concentrations for 18 hrs at 4°C, washed, fixed; bound virus detected with polyclonal rabbit anti-Ad5 and an ELISA amplification system; fit to the Langmuir binding isotherm. The note with it: one partner purified.

B1: Integrin αvβ5 (receptor)
chain 1: FNLDVDSPAEYSGPEGSYFGFAVDFFVPSASSRMFLLVGAPKANTTQPGIVEGGQVLKCDWSSTRRCQPIEFDATGNRDYAKDDPLEFKSHQWFGASVRSKQDKILACAPLYHWRTEMKQEREPVGTCFLQDGTKTVEYAPCRSQDIDADGQGFCQGGFSIDFTKADRVLLGGPGSFYWQGQLISDQVAEIVSKYDPNVYSIKYNNQLATRTAQAIFDDSYLGYSVAVGDFNGDGIDDFVSGVPRAARTLGMVYIYDGKNMSSLYNFTGEQMAAYFGFSVAATDINGDDYADVFIGAPLFMDRGSDGKLQEVGQVSVSLQRASGDFQTTKLNGFEVFARFGSAIAPLGDLDQDGFNDIAIAAPYGGEDKKGIVYIFNGRSTGLNAVPSQILEGQWAARSMPPSFGYSMKGATDIDKNGYPDLIVGAFGVDRAILYRARPVITVNAGLEVYPSILNQDNKTCSLPGTALKVSCFNVRFCLKADGKGVLPRKLNFQVELLLDKLKQKGAIRRALFLYSRSPSHSKNMTISRGGLMQCEELIAYLRDESEFRDKLTPITIFMEYRLDYRTAADTTGLQPILNQFTPANISRQAHILLDCGEDNVCKPKLEVSVDSDQKKIYIGDDNPLTLIVKAQNQGEGAYEAELIVSIPLQADFIGVVRNNEALARLSCAFKTENQTRQVVCDLGNPMKAGTQLLAGLRFSVHQQSEMDTSVKFDLQIQSSNLFDKVSPVVSHKVDLAVLAAVEIRGVSSPDHVFLPIPNWEHKENPETEEDVGPVVQHIYELRNNGPSSFSKAMLHLQWPYKYNNNTLLYILHYDIDGPMNCTSDMEINPLRIKISSLQTTEKNDTVAGQGERDHLITKRDLALSEGDIHTLGCGVAQCLKIVCQVGRLDRGKSAILYVKSLLWTETFMNKENQNHSYSLKSSASFNVIEFPYKNLPIEDITNSTLVTTNVTWGIQPAPMPVPVWVIILAVLAGLLLLAVLVFVMYRMGFFKRVRPPQEEQEREQLQPHENGEGNSET
chain 2: GLNICTSGSATSCEECLLIHPKCAWCSKEDFGSPRSITSRCDLRANLVKNGCGGEIESPASSFHVLRSLPLSSKGSGSAGWDVIQMTPQEIAVNLRPGDKTTFQLQVRQVEDYPVDLYYLMDLSLSMKDDLDNIRSLGTKLAEEMRKLTSNFRLGFGSFVDKDISPFSYTAPRYQTNPCIGYKLFPNCVPSFGFRHLLPLTDRVDSFNEEVRKQRVSRNRDAPEGGFDAVLQAAVCKEKIGWRKDALHLLVFTTDDVPHIALDGKLGGLVQPHDGQCHLNEANEYTASNQMDYPSLALLGEKLAENNINLIFAVTKNHYMLYKNFTALIPGTTVEILDGDSKNIIQLIINAYNSIRSKVELSVWDQPEDLNLFFTATCQDGVSYPGQRKCEGLKIGDTASFEVSLEARSCPSRHTEHVFALRPVGFRDSLEVGVTYNCTCGCSVGLEPNSARCNGSGTYVCGLCECSPGYLGTRCECQDGENQSVYQNLCREAEGKPLCSGRGDCSCNQCSCFESEFGKIYGPFCECDNFSCARNKGVLCSGHGECHCGECKCHAGYIGDNCNCSTDISTCRGRDGQICSERGHCLCGQCQCTEPGAFGEMCEKCPTCPDACSTKRDCVECLLLHSGKPDNQTCHSLCRDEVITWVDTIVKDDQEAVLCFYKTAKDCVMMFTYVELPSGKSNLTVLREPECGNTPNAMTILLAVVGSILLVGLALLAIWKLLVTIHDRREFAKFQSERSRARYEMASNPLYRKPISTHTVDFTFNKFNKSYNGTVD
notes: integrin alpha-V subunit, human, endogenous on the surface of MDA-MB-435 and MCF7 cells; integrin beta-5 subunit, human, endogenous on the surface of MDA-MB-435 and MCF7 cells; no isolated integrin was used; source: endogenous, on MDA-MB-435 and MCF7 cells
B1 showed a Kd of 140 pM. In other words, the sub-nanomolar range.

As usually defined, the Kd is the equilibrium constant for the complex coming apart. A lower Kd goes with higher affinity.
